Assay results reported in US20230212549A1 (3B PHARMACEUTICALS, published 2023).
Numbered stars: 1 amine (or outer) side, 2 acyl side, 3 side chain; on linkers, the order of the positions; unused ones are H or OH. Bridge positions count the residues as written; N and C are the ends. Square brackets hold non-standard residues; d marks the D form. Primed or numbered codes have the meaning given here. * marks the point of attachment. Ttds″ = 1,13-diamino-4,7,10-trioxatridecan-succinamic acid spacer, O=C(CCC(=O)[*:2])NCCCOCCOCCOCCCN[*:1]; Ttds(4) = spacer between chelator and peptide, O=C(CCC(=O)[*:2])NCCCOCCOCCOCCCN[*:1]; DOTA = O=C(O)CN1CCN(CC(=O)O)CCN(CC(=O)*)CCN(CC(=O)O)CC1; mXylylene = c1cc(C[*:1])cc(C[*:2])c1; 4Pal = N[C@@H](Cc1ccncc1)C(=O)O; 3Amb = NCc1cccc(C(=O)O)c1; 4Amb = NCc1ccc(C(=O)O)cc1; Nle = CCCC[C@H](N)C(=O)O; Hexanoyl = CCCCCC(=O)*; NH(CH2)5NH2 = NCCCCCN*; Omp = not defined here; GABA = NCCCC(=O)O

Assays:
[1] = biological target: T1, Recombinant human FAP (R&D systems, #3715-SE) (human, UniProt Q12884 26-760); assay: SPR (Biacore T200), FAP captured on anti-FAP antibody, single cycle kinetics
T1 construct: bought; in SPR captured on immobilized anti-FAP antibody MAB3715; also called rhFAP; human recombinant FAP

[2] = biological target: Recombinant human FAP (R&D systems, #3715-SE) (human, UniProt Q12884 26-760); assay: cell-based or functional assay
[3] = biological target: T2, fibroblast activation protein (FAP) on FAP-expressing human WI-38 fibroblasts (human, UniProt Q12884 1-760); assay: competitive FACS, WI-38 cells, vs Cy5 tracer m3; A = pIC50 >8.0
T2 construct: also called human FAP

pKD Category [1]	pIC50 Category (Activity) [2]	pIC50 Category (FACS) [3]	Binder
> 8 pKD	–	–	{DOTA}-[Ttds(4)][Nle]CPPTQFCD-NH2 (linker 3-9 via mXylylene; SMILES CCCC[C@H](NC(=O)CCC(=O)NCCCOCCOCCOCCCNC(=O)CN1CCN(CC(=O)O)CCN(CC(=O)O)CCN(CC(=O)O)CC1)C(=O)N[C@H]1CSCc2cccc(c2)CSC[C@@H](C(=O)N[C@@H](CC(=O)O)C(N)=O)NC(=O)[C@H](Cc2ccccc2)NC(=O)[C@H](CCC(N)=O)NC(=O)[C@H]([C@@H](C)O)NC(=O)[C@@H]2CCCN2C(=O)[C@@H]2CCCN2C1=O, also called 3BP-3401) [DOTA-Ttds-Nle-[Cys(3MeBn)-Pro-Pro-Thr-Gln-Phe-Cys]-Asp-NH2]
–	> 8 pIC50	> 8 pIC50	Hexanoyl-CPPTEFCDR-NH2 (linker 1-7 via mXylylene; SMILES CCCCCC(=O)N[C@H]1CSCc2cccc(c2)CSC[C@@H](C(=O)N[C@@H](CC(=O)O)C(=O)N[C@@H](CCCNC(=N)N)C(N)=O)NC(=O)[C@H](Cc2ccccc2)NC(=O)[C@H](CCC(=O)O)NC(=O)[C@H]([C@@H](C)O)NC(=O)[C@@H]2CCCN2C(=O)[C@@H]2CCCN2C1=O, also called 3BP-3299) [Hex-[Cys(3MeBn)-Pro-Pro-Thr-Glu-Phe-Cys]-Asp-Arg-NH2]
–	> 8 pIC50	> 8 pIC50	Hexanoyl-CPPTEFCDH[4Pal][dR][Ttds″]K(DOTA)-NH2 (linker 1-7 via mXylylene; SMILES CCCCCC(=O)N[C@H]1CSCc2cccc(c2)CSC[C@@H](C(=O)N[C@@H](CC(=O)O)C(=O)N[C@@H](Cc2c[nH]cn2)C(=O)N[C@@H](Cc2ccncc2)C(=O)N[C@H](CCCNC(=N)N)C(=O)NCCCOCCOCCOCCCNC(=O)CCC(=O)N[C@@H](CCCCNC(=O)CN2CCN(CC(=O)O)CCN(CC(=O)O)CCN(CC(=O)O)CC2)C(N)=O)NC(=O)[C@H](Cc2ccccc2)NC(=O)[C@H](CCC(=O)O)NC(=O)[C@H]([C@@H](C)O)NC(=O)[C@@H]2CCCN2C(=O)[C@@H]2CCCN2C1=O, also called 3BP-3277) [Hex-[Cys(3MeBn)-Pro-Pro-Thr-Glu-Phe-Cys]-Asp-His-Ppa-arg-Ttds-Lys(DOTA)-NH2]
> 8 pKD	–	–	Ac-CPPTEFCDHFRD-NH2 (linker 1-7 via mXylylene; SMILES CC(=O)N[C@H]1CSCc2cccc(c2)CSC[C@@H](C(=O)N[C@@H](CC(=O)O)C(=O)N[C@@H](Cc2c[nH]cn2)C(=O)N[C@@H](Cc2ccccc2)C(=O)N[C@@H](CCCNC(=N)N)C(=O)N[C@@H](CC(=O)O)C(N)=O)NC(=O)[C@H](Cc2ccccc2)NC(=O)[C@H](CCC(=O)O)NC(=O)[C@H]([C@@H](C)O)NC(=O)[C@@H]2CCCN2C(=O)[C@@H]2CCCN2C1=O, also called 3BP-3202) [Ac-[Cys(3MeBn)-Pro-Pro-Thr-Glu-Phe-Cys]-Asp-His-Phe-Arg-Asp-NH2]
> 8 pKD	–	–	Hexanoyl-CPPTQFCD-{NH(CH2)5NH2-DOTA′} (linker 1-7 via mXylylene, also called 3BP-3403) [Hex-[Cys(3MeBn)-Pro-Pro-Thr-Gln-Phe-Cys]-Asp-Ape-NH-DOTA′]
> 8 pKD	–	–	Hexanoyl-CPPTQFCG-OH (linker 1-7 via tMeBn(DOTA-AET), also called 3BP-3656) [Hex-[Cys(tMeBn(DOTA-AET))-Pro-Pro-Thr-Gln-Phe-Cys]-Gly-OH]
> 8 pKD	–	–	Hexanoyl-CPPTEFCD-NH2 (linker 1-7 via mXylylene; SMILES CCCCCC(=O)N[C@H]1CSCc2cccc(c2)CSC[C@@H](C(=O)N[C@@H](CC(=O)O)C(N)=O)NC(=O)[C@H](Cc2ccccc2)NC(=O)[C@H](CCC(=O)O)NC(=O)[C@H]([C@@H](C)O)NC(=O)[C@@H]2CCCN2C(=O)[C@@H]2CCCN2C1=O, also called 3BP-3288) [Hex-[Cys(3MeBn)-Pro-Pro-Thr-Glu-Phe-Cys]-Asp-NH2]
> 8 pKD	–	–	Hexanoyl-CPPTQFCS-OH (linker 1-7 via tMeBn(DOTA-AET), also called 3BP-3658) [Hex-[Cys(tMeBn(DOTA-AET))-Pro-Pro-Thr-Gln-Phe-Cys]-Ser-OH]
–	> 8 pIC50	> 8 pIC50	Hexanoyl-CPPTEFCD[4Amb]R-NH2 (linker 1-7 via mXylylene; SMILES CCCCCC(=O)N[C@H]1CSCc2cccc(c2)CSC[C@@H](C(=O)N[C@@H](CC(=O)O)C(=O)NCc2ccc(C(=O)N[C@@H](CCCNC(=N)N)C(N)=O)cc2)NC(=O)[C@H](Cc2ccccc2)NC(=O)[C@H](CCC(=O)O)NC(=O)[C@H]([C@@H](C)O)NC(=O)[C@@H]2CCCN2C(=O)[C@@H]2CCCN2C1=O, also called 3BP-3301) [Hex-[Cys(3MeBn)-Pro-Pro-Thr-Glu-Phe-Cys]-Asp-Pamb-Arg-NH2, listing 1 of 2 here]
–	> 8 pIC50	> 8 pIC50	Hexanoyl-CPPTEFCD[Omp]R-NH2 (linker 1-7 via mXylylene; reading uncertain; also: printed as Hex-[Cys(3MeBn)-Pro-Pro-Thr-Glu-Phe-Cys]-Asp-Omp-Arg-NH2, also called 3BP-3302) [Hex-[Cys(3MeBn)-Pro-Pro-Thr-Glu-Phe-Cys]-Asp-Omp-Arg-NH2]
> 8 pKD	–	–	Hexanoyl-CPPTEFCD[GABA]R-NH2 (linker 1-7 via mXylylene; SMILES CCCCCC(=O)N[C@H]1CSCc2cccc(c2)CSC[C@@H](C(=O)N[C@@H](CC(=O)O)C(=O)NCCCC(=O)N[C@@H](CCCNC(=N)N)C(N)=O)NC(=O)[C@H](Cc2ccccc2)NC(=O)[C@H](CCC(=O)O)NC(=O)[C@H]([C@@H](C)O)NC(=O)[C@@H]2CCCN2C(=O)[C@@H]2CCCN2C1=O, also called 3BP-3300) [Hex-[Cys(3MeBn)-Pro-Pro-Thr-Glu-Phe-Cys]-Asp-Gab-Arg-NH2]
> 8 pKD	–	–	Hexanoyl-CPPTQFCD[Ttds″]K(DOTA)-NH2 (linker 1-7 via mXylylene; SMILES CCCCCC(=O)N[C@H]1CSCc2cccc(c2)CSC[C@@H](C(=O)N[C@@H](CC(=O)O)C(=O)NCCCOCCOCCOCCCNC(=O)CCC(=O)N[C@@H](CCCCNC(=O)CN2CCN(CC(=O)O)CCN(CC(=O)O)CCN(CC(=O)O)CC2)C(N)=O)NC(=O)[C@H](Cc2ccccc2)NC(=O)[C@H](CCC(N)=O)NC(=O)[C@H]([C@@H](C)O)NC(=O)[C@@H]2CCCN2C(=O)[C@@H]2CCCN2C1=O, also called 3BP-3395) [Hex-[Cys(3MeBn)-Pro-Pro-Thr-Gln-Phe-Cys]-Asp-Ttds-Lys(DOTA)-NH2]
> 8 pKD	–	–	Hexanoyl-CPPTEFCD[Ttds″]K(DOTA)-NH2 (linker 1-7 via mXylylene; SMILES CCCCCC(=O)N[C@H]1CSCc2cccc(c2)CSC[C@@H](C(=O)N[C@@H](CC(=O)O)C(=O)NCCCOCCOCCOCCCNC(=O)CCC(=O)N[C@@H](CCCCNC(=O)CN2CCN(CC(=O)O)CCN(CC(=O)O)CCN(CC(=O)O)CC2)C(N)=O)NC(=O)[C@H](Cc2ccccc2)NC(=O)[C@H](CCC(=O)O)NC(=O)[C@H]([C@@H](C)O)NC(=O)[C@@H]2CCCN2C(=O)[C@@H]2CCCN2C1=O, also called 3BP-3396) [Hex-[Cys(3MeBn)-Pro-Pro-Thr-Glu-Phe-Cys]-Asp-Ttds-Lys(DOTA)-NH2]
> 8 pKD	–	–	Ac-MCPPTEFCDHFRD-NH2 (linker 2-8 via mXylylene; SMILES CSCC[C@H](NC(C)=O)C(=O)N[C@H]1CSCc2cccc(c2)CSC[C@@H](C(=O)N[C@@H](CC(=O)O)C(=O)N[C@@H](Cc2c[nH]cn2)C(=O)N[C@@H](Cc2ccccc2)C(=O)N[C@@H](CCCNC(=N)N)C(=O)N[C@@H](CC(=O)O)C(N)=O)NC(=O)[C@H](Cc2ccccc2)NC(=O)[C@H](CCC(=O)O)NC(=O)[C@H]([C@@H](C)O)NC(=O)[C@@H]2CCCN2C(=O)[C@@H]2CCCN2C1=O, also called 3BP-2975) [Ac-Met-[Cys(3MeBn)-Pro-Pro-Thr-Glu-Phe-Cys]-Asp-His-Phe-Arg-Asp-NH2]
> 8 pKD	–	–	Hexanoyl-CPPTEFCDHFRD-NH2 (linker 1-7 via mXylylene; SMILES CCCCCC(=O)N[C@H]1CSCc2cccc(c2)CSC[C@@H](C(=O)N[C@@H](CC(=O)O)C(=O)N[C@@H](Cc2c[nH]cn2)C(=O)N[C@@H](Cc2ccccc2)C(=O)N[C@@H](CCCNC(=N)N)C(=O)N[C@@H](CC(=O)O)C(N)=O)NC(=O)[C@H](Cc2ccccc2)NC(=O)[C@H](CCC(=O)O)NC(=O)[C@H]([C@@H](C)O)NC(=O)[C@@H]2CCCN2C(=O)[C@@H]2CCCN2C1=O) [Hex-[Cys(3MeBn)-Pro-Pro-Thr-Glu-Phe-Cys]-Asp-His-Phe-Arg-Asp-NH2]
–	> 8 pIC50	> 8 pIC50	Hexanoyl-CPPTEFCDH[dF]R[Ttds″]K(DOTA)-NH2 (linker 1-7 via mXylylene; SMILES CCCCCC(=O)N[C@H]1CSCc2cccc(c2)CSC[C@@H](C(=O)N[C@@H](CC(=O)O)C(=O)N[C@@H](Cc2c[nH]cn2)C(=O)N[C@H](Cc2ccccc2)C(=O)N[C@@H](CCCNC(=N)N)C(=O)NCCCOCCOCCOCCCNC(=O)CCC(=O)N[C@@H](CCCCNC(=O)CN2CCN(CC(=O)O)CCN(CC(=O)O)CCN(CC(=O)O)CC2)C(N)=O)NC(=O)[C@H](Cc2ccccc2)NC(=O)[C@H](CCC(=O)O)NC(=O)[C@H]([C@@H](C)O)NC(=O)[C@@H]2CCCN2C(=O)[C@@H]2CCCN2C1=O, also called 3BP-3276) [Hex-[Cys(3MeBn)-Pro-Pro-Thr-Glu-Phe-Cys]-Asp-His-phe-Arg-Ttds-Lys(DOTA)-NH2]
> 8 pKD	–	–	Hexanoyl-CPPTEFC-NH2 (linker 1-7 via tMeBn(DOTA-AET), also called 3BP-3653) [Hex-[Cys(tMeBn(DOTA-AET))-Pro-Pro-Thr-Glu-Phe-Cys]-NH2]
> 8 pKD	–	–	Hexanoyl-CPPTEFCD[4Amb]R-NH2 (linker 1-7 via mXylylene; SMILES CCCCCC(=O)N[C@H]1CSCc2cccc(c2)CSC[C@@H](C(=O)N[C@@H](CC(=O)O)C(=O)NCc2ccc(C(=O)N[C@@H](CCCNC(=N)N)C(N)=O)cc2)NC(=O)[C@H](Cc2ccccc2)NC(=O)[C@H](CCC(=O)O)NC(=O)[C@H]([C@@H](C)O)NC(=O)[C@@H]2CCCN2C(=O)[C@@H]2CCCN2C1=O, also called 3BP-3301) [Hex-[Cys(3MeBn)-Pro-Pro-Thr-Glu-Phe-Cys]-Asp-Pamb-Arg-NH2, listing 2 of 2 here]
> 8 pKD	–	–	Hexanoyl-CPPTEFCD[3Amb]R-NH2 (linker 1-7 via mXylylene; SMILES CCCCCC(=O)N[C@H]1CSCc2cccc(c2)CSC[C@@H](C(=O)N[C@@H](CC(=O)O)C(=O)NCc2cccc(C(=O)N[C@@H](CCCNC(=N)N)C(N)=O)c2)NC(=O)[C@H](Cc2ccccc2)NC(=O)[C@H](CCC(=O)O)NC(=O)[C@H]([C@@H](C)O)NC(=O)[C@@H]2CCCN2C(=O)[C@@H]2CCCN2C1=O, also called 3BP-3324) [Hex-[Cys(3MeBn)-Pro-Pro-Thr-Glu-Phe-Cys]-Asp-Mamb-Arg-NH2]
